Laboratory results as given in patent publication US7037492.

Target: IL-1 receptors (on articular chondrocytes)
Assay: cell-based or functional assay

- inhibition of gelatinase production by IL-1 treated chondrocytes, 5 U/ml IL-1, first culture's conditioned medium: 100%
- inhibition of gelatinase production by IL-1 treated chondrocytes, 5 U/ml IL-1, second culture's conditioned medium: 41%
- inhibition of gelatinase production by IL-1 treated chondrocytes, 10 U/ml IL-1, first culture's conditioned medium: 38%
- inhibition of gelatinase production by IL-1 treated chondrocytes, 10 U/ml IL-1, second culture's conditioned medium: 18%
Substance: human interleukin-1 receptor antagonist protein (IRAP) (from UniProt P18510 26-177) (ligand)
